The values that follow come from article PMC3689916, “Vaspin inhibits kallikrein 7 by serpin mechanism” (Cellular and Molecular Life Sciences: CMLS, 2013).

This experiment deals with T1, recombinant human vaspin (visceral adipose tissue-derived serpin; serpinA12), 10×His fusion protein (human, UniProt Q8IW75 22-414).
T1 construct: the crystal structure model covers residues 37-366 and 378-414 (chain A); The natural signal peptide is probably absent from the construct; also called native human vaspin; 10×His–vaspin
T1 sequence: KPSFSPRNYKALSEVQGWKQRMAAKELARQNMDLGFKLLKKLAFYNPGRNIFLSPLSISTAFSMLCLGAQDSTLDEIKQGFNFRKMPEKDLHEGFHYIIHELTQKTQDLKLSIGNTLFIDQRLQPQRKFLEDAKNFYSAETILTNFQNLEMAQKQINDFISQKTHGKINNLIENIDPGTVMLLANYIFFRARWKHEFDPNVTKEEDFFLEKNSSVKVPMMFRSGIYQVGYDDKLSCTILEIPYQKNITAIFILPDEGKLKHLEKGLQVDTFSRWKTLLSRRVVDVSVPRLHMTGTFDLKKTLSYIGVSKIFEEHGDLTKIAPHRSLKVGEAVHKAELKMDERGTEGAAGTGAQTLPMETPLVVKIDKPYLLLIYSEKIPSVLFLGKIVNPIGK
Description: protease activity assay, association rate under pseudo-first-order conditions (residual activity, fluorogenic peptide substrate); tenfold molar excess of vaspin over hK7; remaining hK7 activity against time; k ass = k obs/[I] from a linear fit of ln activity against time. The conditions noted are these: both partners purified.

B1: recombinant human kallikrein 7 (hK7) (enzyme, UniProt P49862 23-253, looked up)
chain: IIDGAPCARGSHPWQVALLSGNQLHCGGVLVNERWVLTAAHCKMNEYTVHLGSDTLGDRRAQRIKASKSFRHPGYSTQTHVNDLMLVKLNSQARLSSMVKKVRLPSRCEPPGTTCTVSGWGTTTSPDVTFPSDLMCVDVKLISPQDCTKVYKDLLENSMLCAGIPDSKKNACNGDSGGPLVCRGTLQGLVSWGTFPCGQPNDPGVYTQVCKFTKWINDTMKKHR
notes: source: bought: R&D Systems
A word on the kon: it is the rate constant with which the complex forms. B1: the kon came to 7300 M⁻¹ s⁻¹.
